Changes are numbered by the printed parent chain. Where “and” joins values, the source holds several entries; their conditions need not be identical. Equal entries are not always repeated. One block for each molecule: values may come before it. Ends that are not written are not given here.
What was measured:
[1] = biological target: T1, HD-PTPBro1 (Bro1 domain of HD-PTP, 1-361) (Homo sapiens, UniProt Q9H3S7); experiment: Biosensor (SPR) binding of peptides to HD-PTPBro1; settings: 10 mM HEPES pH 7.4, 150 mM NaCl, 0.05% Tween 20, 25°C; for Binding to HD-PTPBro1 (sensogram): compared with wild-type endofin peptide, result in words
T1 construct: HD-PTPBro1 (1-361) was cloned in a pNIC28-Bsa4 vector; made in house; host or cells: E. coli BL21 (DE3)
T1 sequence (Q9H3S7 1-361): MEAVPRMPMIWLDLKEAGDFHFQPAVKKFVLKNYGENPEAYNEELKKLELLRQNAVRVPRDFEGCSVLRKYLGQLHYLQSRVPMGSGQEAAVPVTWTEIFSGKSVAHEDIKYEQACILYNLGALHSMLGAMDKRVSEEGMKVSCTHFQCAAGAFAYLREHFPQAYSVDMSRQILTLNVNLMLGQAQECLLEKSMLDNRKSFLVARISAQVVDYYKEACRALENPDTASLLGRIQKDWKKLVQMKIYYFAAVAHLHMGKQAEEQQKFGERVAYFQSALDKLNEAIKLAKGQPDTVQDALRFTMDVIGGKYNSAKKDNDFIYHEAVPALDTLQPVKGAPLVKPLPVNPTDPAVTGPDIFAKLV
Experimental: (§1) Biosensor based binding experiments were performed using a ProteOn XPR36 surface Plasmon resonance instrument (Bio-Rad Laboratories). The ProteOn XPR36 is multiplex system that can be used to provide simultaneous flow of up to six analyte channels (A1-A6) over up to six ligand channels (L1-L6). The running buffer used was 10 mM HEPES pH 7.4, 150 mM NaCl, 0.05% Tween 20. Immobilization of His6-tagged HD-PTP and a negative control protein, His6-tagged MptpB, was performed on a HTE chip (Bio-Rad Laboratories) in the vertical orientation. Proteins were diluted in running buffer to a final concentration of 50-100 μg/ml and 150 μl was injected at a flow rate of 30 μl/min The immobilization level of proteins was typically 5000-8000 response unit (RU). All experiments were performed at 25°C. Synthetic peptides spanning the binding regions of CHMP4 A, B and C, and SARA and endofin, were obtained from Generon Ltd, UK. For equilibrium binding measurements these peptides were used as analytes. Peptide stocks were prepared in running buffer just prior the binding experiments. Peptides were injected (50 μl at 100 μl/min) in the horizontal orientation using five serially diluted peptide concentrations (channels A1-A5) alongside a buffer control (channel A6). Peptide concentrations were chosen to give a suitable spread of responses below and above half-maximal binding.
(§2) All the binding sensograms were collected, processed and analyzed using the integrated ProteOn Manager software (Bio-Rad Laboratories), using the equilibrium binding mode: Response = [A] ^∗ Rmax/([A] + KD), where [A] is the analyte concentration and Rmax is the maximum response. At least 3 independent replicates were performed for each experiment. Values in the text and figure legends indicate mean +/- SD (standard deviation).

HD-PTPBro1-CC (1-714) = biological target: T2, HD-PTPBro1-CC (1-714) (Homo sapiens, UniProt Q9H3S7); experiment: Biosensor (SPR) binding of peptides to HD-PTPBro1-CC; settings: 10 mM HEPES pH 7.4, 150 mM NaCl, 0.05% Tween 20, 25°C; for Binding to HD-PTPBro1-CC (sensogram): compared with wild-type endofin peptide, result in words
T2 construct: HD-PTPBro1-CC (1-714) and AlixBro1 (1-359) were cloned in a pET28a vector; made in house; host or cells: E. coli BL21 (DE3)
T2 sequence (Q9H3S7 1-714): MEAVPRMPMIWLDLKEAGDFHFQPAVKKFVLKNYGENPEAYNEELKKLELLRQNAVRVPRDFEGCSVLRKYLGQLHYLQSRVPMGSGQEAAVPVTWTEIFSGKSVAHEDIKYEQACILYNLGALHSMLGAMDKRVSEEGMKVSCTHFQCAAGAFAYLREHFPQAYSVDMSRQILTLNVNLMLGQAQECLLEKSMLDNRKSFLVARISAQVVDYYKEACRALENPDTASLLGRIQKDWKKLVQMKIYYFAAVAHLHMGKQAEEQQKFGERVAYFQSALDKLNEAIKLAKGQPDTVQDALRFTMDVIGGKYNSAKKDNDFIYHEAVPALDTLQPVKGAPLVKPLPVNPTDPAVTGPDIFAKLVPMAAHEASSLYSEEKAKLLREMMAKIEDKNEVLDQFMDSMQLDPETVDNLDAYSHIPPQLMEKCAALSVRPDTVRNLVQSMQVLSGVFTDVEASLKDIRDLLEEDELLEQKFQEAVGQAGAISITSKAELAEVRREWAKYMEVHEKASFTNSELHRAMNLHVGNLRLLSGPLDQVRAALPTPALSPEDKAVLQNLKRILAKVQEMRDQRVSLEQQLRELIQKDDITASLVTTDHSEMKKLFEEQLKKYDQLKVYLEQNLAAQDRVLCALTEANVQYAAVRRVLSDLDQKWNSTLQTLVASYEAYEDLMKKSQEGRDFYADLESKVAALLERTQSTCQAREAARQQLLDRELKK
Experimental: as §1, §2

[2] = biological target: T3, His6-HD-PTP_(Bro1) (1-361) (human, UniProt Q9H3S7 1-361); experiment: SPR; ProteOn XPR36; His6-tagged proteins immobilised on a HTE chip (5000-8000 RU); synthetic peptides as analytes, five concentrations; 10 mM HEPES pH 7.4, 150 mM NaCl, 0.05% Tween 20; 25°C; equilibrium binding fit; settings: both partners purified
T3 construct: HD-PTP/PTPN23, Bro1 domain, residues 1-361; Immobilised by its His6 tag on the HTE chip; also called HD-PTP Bro1 domain; source: E. coli BL21 (DE3), purified (Nickel-beads, MonoQ, Superdex 200); not shown: His6, N-terminal, kept
T3 sequence (looked up): T1 sequence (Q9H3S7 1-361)

[3] = biological target: T4, His6-HD-PTP_(Bro1-CC) (1-714), bacterially expressed (human, UniProt Q9H3S7 1-714); experiment: as above; settings: both partners purified
T4 construct: HD-PTP/PTPN23, Bro1 and coiled-coil domains, residues 1-714; also called His-HD-PTP; source: E. coli BL21 (DE3), purified (Nickel-beads, MonoQ, Superdex 200); not shown: His6, N-terminal, kept
T4 sequence (looked up): T2 sequence (Q9H3S7 1-714)

CHMP4C = biological target: T5, CHMP4C (Homo sapiens (Human), UniProt Q96CF2); experiment: SPR equilibrium, peptide analyte
T5 chain: QRAEEEDDDIKQLAAWAT

CHMP4A = biological target: T6, CHMP4A (Homo sapiens (Human), UniProt Q9BY43); experiment: SPR equilibrium, peptide analyte
T6 chain: PKVDEDEEALKQLAEWVS

CHMP4B = biological target: T7, CHMP4B (Homo sapiens (Human), UniProt Q9H444); experiment: SPR equilibrium, peptide analyte
T7 chain: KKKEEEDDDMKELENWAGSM

Endofin = biological target: T8, Endofin (Homo sapiens (Human), UniProt Q7Z3T8); experiment: SPR equilibrium, peptide analyte
T8 chain: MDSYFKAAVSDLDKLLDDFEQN

[4] = biological target: T4, His6-HD-PTP_(Bro1-CC) (1-714), …; experiment: co-IP; competition: GST-CHMP4B and His6-HD-PTP Bro1-CC as in the CHMP4B binding experiments, endofin 22-mer peptide (WT or L15P) added at 20 μM; immunoprecipitation with anti-His; settings: both partners purified
[5] = biological target: T9, His6-HD-PTP_(Bro1-CC) T145K, bacterially expressed (human, UniProt Q9H3S7 1-714, T145K); experiment: co-IP; bacterially expressed GST-CHMP4B, full length or truncated (50 μg/ml), and His6-HD-PTP Bro1-CC (5 μg) in 200 μl IP2 buffer with 250 mM NaCl, 2 h at 4°C; immunoprecipitation with anti-His; settings: both partners purified
T9 construct: HD-PTP/PTPN23, residues 1-714 with T145K; source: E. coli, bacterially expressed, purified; not shown: His6, N-terminal, kept
T9 sequence (looked up): T2 sequence (Q9H3S7 1-714) with T145K

[6] = listed as endofin L15 to proline
[7] = listed as endofin peptide containing the L15P mutation

B2: HDPTP_Bro1 (protein)
chain: T1 sequence (Q9H3S7 1-361)
Kd (CHMP4C): 88 µM
Kd (CHMP4A): 132 µM
Kd (CHMP4B): 85 µM

B3: CHMP4B C-terminal peptide (peptide)
chain: KKKEEEDDDMKELENWAGSM
Kd [2]: 85 µM

B4: CHMP4C C-terminal peptide (peptide)
chain: QRAEEEDDDIKQLAAWAT
Kd [2]: 89 µM and 88 µM

B5: ALIX_Bro1 (protein)
chain: MATFISVQLKKTSEVDLAKPLVKFIQQTYPSGGEEQAQYCRAAEELSKLRRAAVGRPLDKHEGALETLLRYYDQICSIEPKFPFSENQICLTFTWKDAFDKGSLFGGSVKLALASLGYEKSCVLFNCAALASQIAAEQNLDNDEGLKIAAKHYQFASGAFLHIKETVLSALSREPTVDISPDTVGTLSLIMLAQAQEVFFLKATRDKMKDAIIAKLANQAADYFGDAFKQCQYKDTLPKEVFPVLAAKHCIMQANAEYHQSILAKQQKKFGEEIARLQHAAELIKTVASRYDEYVNVKDFSDKINRALAAAKKDNDFIYHDRVPDLKDLDPIGKATLVKSTPVNVPISQKFTDLFEKMV
Kd (Endofin): > 12.5 µM

B6: CHMP4A C-terminal peptide (peptide)
chain: PKVDEDEEALKQLAEWVS
Kd [2]: 132 µM

Continued, in another order:

Binding to HD-PTPBro1 (sensogram) [1]: poor binding
Kd ([1]; poor binding, read-out: Binding (affinity bound) to HD-PTPBro1): > 1500 µM
Molecule: KAAVSDLDKLLDDFEQN
Binding to HD-PTPBro1-CC (sensogram) (HD-PTPBro1-CC (1-714)): poor binding
Kd (HD-PTPBro1-CC (1-714); poor binding, read-out: Binding (affinity bound) to HD-PTPBro1-CC): > 1500 µM

Binding to HD-PTPBro1 (sensogram) [1, 6]: abolishes binding
Binding to HD-PTPBro1 (sensogram) [1, 7]: did not bind
Molecule: endofin1–22(L15P): endofin 22-mer peptide containing the L15P mutation (MDSYFKAAVSDLDKPLDDFEQN)
Binding to HD-PTPBro1-CC (sensogram) (HD-PTPBro1-CC (1-714); [6]): abolishes binding
Binding to HD-PTPBro1-CC (sensogram) (HD-PTPBro1-CC (1-714); [7]): did not bind

Kd [2]: > 1500 µM
Kd [3]: > 1500 µM
B1: shorter endofin peptide lacking 1-MDSYF-5 (peptide)
chain: KAAVSDLDKLLDDFEQN
modifications: C-terminal limit not given; taken as residue 22, the end of the 22-mer endofin peptide

binding result [4]: binds
binding result [5]: binds
B7: GST-CHMP4B (1-224), bacterially expressed (natural protein, human, UniProt Q9H444 1-224, looked up)
chain: MSVFGKLFGAGGGKAGKGGPTPQEAIQRLRDTEEMLSKKQEFLEKKIEQELTAAKKHGTKNKRAALQALKRKKRYEKQLAQIDGTLSTIEFQREALENANTNTEVLKNMGYAAKAMKAAHDNMDIDKVDELMQDIADQQELAEEISTAISKPVGFGEEFDEDELMAELEELEQEELDKNLLEISGPETVPLPNVPSIALPSKPAKKKEEEDDDMKELENWAGSM
notes: CHMP4B, residues 1-224, full length; In pGEX-4T1; also called CHMP4B-FL; full length GST-CHMP4B; source: E. coli C41 (DE3), purified (GSTrap HP)

Kd [2]: 3.1 µM
Kd [3]: 2.7 µM
B8: endofin 22-mer peptide (first 22 residues of endofin) (peptide, UniProt Q7Z3T8 1-22, looked up)
peptide: MDSYFKAAVSDLDKLLDDFEQN
notes: human endofin, first 22 residues; begins 1-MDSYF-5; also called endofin peptide; endofin_(1-22) (WT); source: synthetic peptide (Generon Ltd, UK)

Kd [2]: 11.3 µM
B9: SARA 22-mer peptide (N-terminal 22 residues of SARA) (peptide, UniProt O95405 1-22, looked up)
peptide: MENYFQAEAYNLDKVLDEFEQN
notes: human SARA, N-terminal 22 residues; also called SARA peptide; equivalent region of SARA; source: synthetic peptide (Generon Ltd, UK)
